Measured values as given in the supplement of paper PMC9170038.

Tested on: MS2 coat protein
Assay: apparent KD of MS2 coat protein; designed switch direction (-1 OFF switch, 1 ON switch): -1; higher = weaker reporter binding
Outline: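 Designed RNA switches with common flanks were made on Illumina chips by stalled E. coli RNA polymerase. Titration with SNAP-549-labelled MS2 coat protein doubled from 0.7 or 1.5 nM up to 3 µM. Apparent KD is each design's median over clusters after curve-fitting normalised fluorescence.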

[1] = input ligand: microRNA oligo, concentration not stated
[2] = Eterna round: R95, input ligand: microRNA oligo, concentration not stated
[3] = Eterna round: R95, input ligand: FMN 200 uM
[4] = Eterna round: R95, input ligand: none

Row | Sequence | apparent KD of MS2 coat protein (input ligand: FMN 200 uM) [nM] | apparent KD of MS2 coat protein [1] [nM] | apparent KD of MS2 coat protein (input ligand: none) [nM] | apparent KD of MS2 coat protein [2] [nM] | apparent KD of MS2 coat protein [3] [nM] | apparent KD of MS2 coat protein [4] [nM]
1 | ACAUGAGGAUCACCCAUGUGACCACAAUGGCUGAUGUAAAGACAGGAUAUGUGUGAAUAUCUAACACAGAAGGGUCUUGACUGG [Deportation 57 - Jieux - Exclusion NG 3] (Eterna round: R96, puzzle: Exclusion NG 3) | 53 | 47.1 | 47.8 | – | – | –
2 | CAGUACUGAGGAUAUACAUGAGGAUCACCCAUGUAUCCUAGCUAGGAAACUAGCAAAUGUAGAAGGCAGUACUG [Ex3: 818] (Eterna round: R96, puzzle: Exclusion 3) | 747 | 53.8 | 61.2 | – | – | –
3 | UAAAAUAAACAUGAGGAUCACCCAUGUGAAUGGACUCCUCGGGAGGAUAUUCUGCUUAAAGGUCAGGAGAAGGCCCAUUGCAAU [Isinza] (Eterna round: R96, puzzle: Exclusion NG 3) | 545 | 242 | 197 | – | – | –
4 | UCAGGAGCAGGAUAUGCAAUCGUGCUUCGGCACGUAAGGUCACAUGAGGAUCACCCAUGUAGAAGGGCUCCUGA [E2/4-D2] (Eterna round: R97, puzzle: Exclusion 2) | 38.4 | – | 18.4 | – | – | –
5 | CAUGUCCAACGAGGAUAUGGGACAGGAGGUGUACCAGAAGGCGUACGGACAUGAGGAUCACCCAUGUCGCGCGGUGCGAUGUGG [15th something] (Eterna round: R96, puzzle: Exclusion NG 1) | 98.9 | 39.8 | 62.8 | – | – | –
6 | AGGAUGUAAGGAUAUCCAAGGGUAACGCCAAUGGCAGCCCAGGAGAAGGUACAUGAGGAUCACCCAUGUGAUAA [Leatbi] (Eterna round: R97, puzzle: Exclusion 4) | 263 | – | 80.8 | – | – | –
7 | GCAUGGGCCGUCAGGAUAUAGGCGCCGUGAAGGUAUUAGAAGGGACAUGAGGAUCACCCAUGUAUGAGAAAAGA [Edtioresor] (puzzle: Brourd's mod of Exclusion 4) | – | – | – | 33.7 | – | –
8 | CCAUCUCUAGUAGGAUAUGUCGGAUAUGUUGUUGAGGUUCACCCAACGACGUCAAUGACAGAAGGACAGAAGGACUCUCGAUGC [pwkr exNG2 2xFMN 1xF5.6] (Eterna round: R96, puzzle: Exclusion NG 2) | 114 | 463 | 183 | – | – | –
9 | GGUCGGCGAGGAUAUACAUGAGGAUCACCCAUGUGAUUUAGUGCACGCGUACGUGUACGUAGAAGGCGCUGACG [JL-ex3-3.27 salish99 mod] (puzzle: Exclusion 3) | – | – | – | 14 | 127 | 11.3
10 | GGUUGACAUGAGGAUCACCCAUGUGAGGAUAUGCGAGAGAAAAAAGUGAGGAAGAGAAGCAGAAGGCGCUGUCG [salish99-ex1_r3_014] (puzzle: Exclusion 1) | – | – | – | 45.1 | 68.7 | 106
11 | ACUGUUUGAUACCUCUUAUACAUGAGGAUCACCCAUGUUAUCGAGGAUAUGCAUUAGAGUGGUUAGCAGAAGGCGAUGUAAUUG [JR_ExcNG3_Sub032] (Eterna round: R96, puzzle: Exclusion NG 3) | 30.8 | 12.1 | 13.5 | – | – | –
12 | UAAUAGUAUGUUAGGAUAUGCUGGUCGAAAGAUCAGCAGAAGGAACAUGAGGAUCACCCAUGUAGACUAUUUUA [Mod of JL 20 - Jieux - Brourd's mod of Exclusion 4] (Eterna round: R97, puzzle: Brourd's mod of Exclusion 4) | 31.6 | – | 17.8 | – | – | –
13 | UGCAUGCUAGGAUAUACGAAACAUUAGGGUUCUUCGUAUGAACAUGAGGAUCACCCAUGUAGAAGGAGCGUGCU [Mod9 of JL-ex2-2.15 mat747 mod] (puzzle: Exclusion 2) | – | – | – | 31.1 | – | –
14 | GUUACACAUGAGGAUCACCCAUGUGAGGAUAUGGAUUCGUUGCAAGUAGGCGAUGGAUCCAGAAGGCGCGUGAG [JR_Ex1_Sub080] (Eterna round: R97, puzzle: Exclusion 1) | 58.7 | – | 50.5 | – | – | –
15 | AUGCUCCGUGUAGGAUAUCGCCGCAUCACUCGGCGAGAAGGACAUGAGGAUCACCCAUGUAUGUUAUUAUCACGUGUGGCGCGC [Design 44] (Eterna round: R96, puzzle: Exclusion NG 1) | 52.3 | 16.7 | 25.3 | – | – | –
16 | AACAGAUGAGGAUAUACACGAGGAGUGAUACCGUAUGCCAGACAUGAGGAUCACCCAUGUAGAAGGCAUAAUAG [Celeated] (Eterna round: R97, puzzle: Exclusion 2) | 18.9 | – | 12.4 | – | – | –
17 | UCACGGCUCGGAGGAUAUGACACAUGAGGAUCACCCAUGUGUGUAAGCCAAUAAACCUACAAAUGUCAGAAGGCCGCGCCUCAU [Eternabot solution 9] (Eterna round: R96, puzzle: Exclusion NG 2) | – | 10.8 | – | – | – | –
18 | UAACUGCUCGUCUUGUUAAACAUGAGGAUCACCCAUGUCAGCCUGUAAGGGUACGGUAGAUAGGCCCGAUUGCAUGA [Eternabot (L1) Solution 11] (Eterna round: R97, puzzle: Sensor, turn-off variant 1) | 26.9 | – | 31.2 | – | – | –

Row | Sequence | apparent KD of MS2 coat protein (input ligand: FMN 200 uM) [nM] | apparent KD of MS2 coat protein [1] [nM] | apparent KD of MS2 coat protein (input ligand: none) [nM] | apparent KD of MS2 coat protein [2] [nM] | apparent KD of MS2 coat protein [3] [nM] | apparent KD of MS2 coat protein [4] [nM]
19 | CGCCCGGGAGGAUAUCCAAUAUAUGACAUGAGGAUCACCCAUGUUUCCACUCGUACCUCCGGAGAAGGCCCGGCGA [Ex5 #28] (Eterna round: R97, puzzle: Exclusion 5) | 20.2 | – | 24.9 | – | – | –
20 | AGUAUAAUGUACGUGCACCACUUACAUGAGGAUCACCCAUGUUAGGAUAUCGAGCCUUUCUGGCUCGAGAAGGGACUCUUCGGG [Eternabot solution 18] (Eterna round: R96, puzzle: Exclusion NG 3) | 33.2 | 22.9 | 29.1 | – | – | –
21 | GUCCCGGAAGGAUAUGCAGAGCACGAUCCCGUUAAAGGGCCACAUGAGGAUCACCCAUGUAGAAGGUCCAGGGC [EX2 B.21] (Eterna round: R97, puzzle: Exclusion 2) | 32.8 | – | 13.1 | – | – | –
22 | GUAACAACUAGAGGAUAUCAGCACGAUUAGUGCUGAGAAGGCUAGAGUUACAUGAGGAUCACCCAUGUCUAGAGAUCAUUAAUU [ENG1/13-A1] (Eterna round: R96, puzzle: Exclusion NG 1) | 155 | 53.2 | 79.7 | – | – | –
23 | AAUAACAGAGGAUAUACUAUUUUAUGUGUUUGUUGUUUUGAACAUGAGGAUCACCCAUGUAGAAGGCUGAAUAA [JMF 26] (puzzle: Exclusion 2) | – | – | – | 22.1 | – | –
24 | CUUCGUAUAGAGGAUAUAGGAUACCUCGGUGUCCUAGAAGGCUGUACAUGAGGAUCACCCAUGUACUUCAGAUC [Exclusion 6 - B - 14:d] (puzzle: Exclusion 6) | – | – | – | 12.6 | – | –
25 | GUCUACAUGACAUGAGGAUCACCCAUGUGUUAUAUUUUUACUAAGGAUAUAUUUUUAAUGUUGAGAUAGAAGGUAGUUUCGGUC [JR_ExcNG3_Sub093] (Eterna round: R96, puzzle: Exclusion NG 3) | – | 32.8 | – | – | – | –
26 | AUGCGUGGCUAGGAUAUUGAGGAAUUUAGCCAGCAAGAAGGAGCCACAUGAGGAUCACCCAUGUGGUGAACCUC [jl-ex6-4.61 ViennaUCT mod] (Eterna round: R97, puzzle: Exclusion 6) | 13.2 | – | 30.6 | – | – | –
27 | GGUACUAACACGAGAGUGUUAGUACAAUAAGCUUGUGUUACAUGAGGAUCACCCAUGUCCUCAUAAGCUCGUCUUAU [Mat - Sensor v3 - Turn-off var 2 - D57] (puzzle: Sensor v3, turn-off variant 2) | – | – | – | 30.8 | 107 | 124
28 | CUAGAGCGAGGAUAUACAUGAGGAUCACCCAUGUGGCAGCCGGGUAGGAGUGACGUCGGUAGAAGGCGCACCCG [Anrate] (puzzle: Exclusion 3) | – | – | – | 33.2 | 27.5 | 37.9
29 | CGUGACUCAGGAUAUCUAUAGUGUCACAUGAGGAUCACCCAUGUCCAGCGAAAGCUGGAGGGAGAAGGGAGUCACG [Fiskers Ex 5 - 43] (puzzle: Exclusion 5) | – | – | – | 90.5 | – | –
30 | UAUUGGAUAGGAUAUACAUGAGGAUCACCCAUGUGGACGGCUAAGCCUACCGCGCAGAGUAGAAGGGUCGGGUG [Eternabot (L1) Solution 66] (Eterna round: R97, puzzle: Exclusion 3) | 161 | – | 155 | – | – | –
31 | UAUAUAUAGUAAGGAUAUGUAAUUAGUUUAUAAACAGAAGGUACUGACAUGAGGAUCACCCAUGUUUUAGUGUGGGCAUGUAGA [JMF's solution 36] (Eterna round: R96, puzzle: Exclusion NG 1) | – | 61.3 | – | – | – | –
32 | GAAUAGCGAGGAUAUACAUGAGGAUCACCCAUGUGAUCCUUAGGCUGUUCAAGCCAAUGUAGAAGGCGCAAAUU [jl-ex3.4.58 ViennaUCT mod] (Eterna round: R97, puzzle: Exclusion 3) | 76.6 | – | 129 | – | – | –
33 | ACAUGACAGCUAGGAUAUAAAUGACAUGAGGAUCACCCAUGUUGUCCCAUGUUGACGAUCACCGAUUAGAAGGAGCCACCCAUG [Ex NG2 #1] (Eterna round: R96, puzzle: Exclusion NG 2) | 106 | 110 | 89 | – | – | –
34 | AUGCGUGGCUAGGAUAUCGAGGAAUUUAGCCAGCGAGAAGGAGCCACAUGAGGAUCACCCAUGUGGUGAACCUC [jl-ex6-4.62 ViennaUCT mod] (Eterna round: R97, puzzle: Exclusion 6) | 41.1 | – | 10.2 | – | – | –
35 | CCUCCACAUGAGGAUCACCCAUGUCAGGAUAUCGUGUGUUUUUUUUCGGUCUUUCGUGCGAGAAGGGACGUCUG (puzzle: Exclusion 1) | – | – | – | 28.1 | – | –
